# Test results reported in doi:10.1101/2024.07.16.603716.
# Target: VisA (SGO_2004) region containing its 7 G5 domains, residues 138-698, with a C-terminal His-tag (Streptococcus gordonii DL1)
# Assay: denaturing western blot
substance,measurement,value
"VisA (SGO_2004) region containing its 7 G5 domains, residues 138-698, with a C-terminal His-tag (domain or fragment)",stoichiometry N,2
